# Measurements as given in patent US6699842B1, “Dominant negative deletion mutants of C-jun and their use in the prevention and treatment of cancer” (The United States of America as represented by the …, priority 1994, dated 2004).
# B1: epidermal growth factor (protein, UniProt P01133 23-1207, looked up)
# Pro-epidermal growth factor: PQHWSCPEGTLAGNGNSTCVGPAPFLIFSHGNSIFRIDTEGTNYEQLVVDAGVSVIMDFHYNEKRIYWVDLERQLLQRVFLNGSRQERVCNIEKNVSGMAINWINEEVIWSNQQEGIITVTDMKGNNSHILLSALKYPANVAVDPVERFIFWSSEVAGSLYRADLDGVGVKALLETSEKITAVSLDVLDKRLFWIQYNREGSNSLICSCDYDGGSVHISKHPTQHNLFAMSLFGDRIFYSTWKMKTIWIANKHTGKDMVRINLHSSFVPLGELKVVHPLAQPKAEDDTWEPEQKLCKLRKGNCSSTVCGQDLQSHLCMCAEGYALSRDRKYCEDVNECAFWNHGCTLGCKNTPGSYYCTCPVGFVLLPDGKRCHQLVSCPRNVSECSHDCVLTSEGPLCFCPEGSVLERDGKTCSGCSSPDNGGCSQLCVPLSPVSWECDCFPGYDLQLDEKSCAASGPQPFLLFANSQDIRHMHFDGTDYGTLLSQQMGMVYALDHDPVENKIYFAHTALKWIERANMDGSQRERLIEEGVDVPEGLAVDWIGRRFYWTDRGKSLIGRSDLNGKRSKIITKENISQPRGIAVHPMAKRLFWTDTGINPRIESSSLQGLGRLVIASSDLIWPSGITIDFLTDKLYWCDAKQSVIEMANLDGSKRRRLTQNDVGHPFAVAVFEDYVWFSDWAMPSVMRVNKRTGKDRVRLQGSMLKPSSLVVVHPLAKPGADPCLYQNGGCEHICKKRLGTAWCSCREGFMKASDGKTCLALDGHQLLAGGEVDLKNQVTPLDILSKTRVSEDNITESQHMLVAEIMVSDQDDCAPVGCSMYARCISEGEDATCQCLKGFAGDGKLCSDIDECEMGVPVCPPASSKCINTEGGYVCRCSEGYQGDGIHCLDIDECQLGEHSCGENASCTNTEGGYTCMCAGRLSEPGLICPDSTPPPHLREDDHHYSVRNSDSECPLSHDGYCLHDGVCMYIEALDKYACNCVVGYIGERCQYRDLKWWELRHAGHGQQQKVIVVAVCVVVLVMLLLLSLWGAHYYRTQKLLSKNPKNPYEESSRDVRSRRPADTEDGMSSCPQPWFVVIKEHQDLKNGGQPVAGEDGQAADGSMQPTSWRQEPQLCGMGTEQGCWIPVSSDKGSCPQVMERSFHMPSYGTQTLEGGVEKPHSLLSANPLWQQRALDPPHQMELTQ
# modifications: Pro-epidermal growth factor
# notes: tumor promoter, peptide growth factor
# Tests used:
# c-Jun = assay: immunoprecipitation and densitometry of c-Jun protein in stable JB6 transfectants; type: cell-based, mouse; conditions: 10 ng/ml, fifteen hours, TAM67 or Neo-only transfectants
# Description: Three TAM67 clonal transfectants (M4, M3, M6) and one neo-only clonal transfectant (N1) were treated for fifteen hours with either 10 ng/ml TPA (T), 10 ng/ml EGF (E), or 0.1% DMSO (D) prior to metabolic labelling for two hours with 0.2 mCi/ml ^35S -methionine (Amersham, Rockford, Ill.) (Sun, Y. et al. (1993) Mol. Carcinogenesis, 8: 49-57). Cellular lysates were then collected and immunoprecipitations using polyclonal rabbit c-jun antibody (AB-1 antibody, Oncogene Science) were carried out overnite at 4° C. (Sun et al. (1993)). These immunoprecipitates were then analyzed by electrophoresis on 12.5% SDS polyacrylamide gels and these gels are shown in FIG. 4.
# AP-1 = assay: CAT assay with stromelysin promoter reporter P750TRCAT (AP-1 dependent) in JB6 P+ Cl 41 cells; type: cell-based, mouse; conditions: 10 ng/ml, eight hours
# Description: The plasmid constructs used in the following examples were as follows: P750TRCAT is a CAT reporter construct containing 750 bp of the rat stromelysin promoter driving the heterogolous gene chloramphenicol acetyl-transferase (CAT). This construct contains an AP-1 binding sequence at position −70 (Matrisian, L. M. et al. (1991) Am. J. Medic. Sci., 302: 157-162, Kerr, L. D. et al. (1988) Science., 242: 1424-1427, McDonnell, S. E. et al. (1990) Mol. Cell. Biol. 105 4284-4293). The mTRE-CAT reporter is a site-directed mutant with 2 point mutations in the AP-1 site (Matrisian, L. M. et al. (1991) Am. J. Medic. Sci., 302: 157-162) and the mPEA3-CAT reporter is a site-directed mutant in which point mutations in each of the PEA3 sites at position −208 to −200 and −191 to −199 of the stromelysin promoter were introduced using a protocol provided with the site-directed mutagenesis kit of Amersham Corp. (Arlington Heights, Ill.) and an oligonucleotide having SEQ ID NO.:1 GCAAGAAGCATTTCTTGG.
# In brief, JB6 Cl 41 (P^+) cells transfected for 4-5 hours using a standard calcium phosphate transfection procedure (Sambrook, J. et al. (1989) “Molecular Cloning, A Laboratory Manual” Cold Spring Harbor Laboratory Press, Cold Spring Harbor, N.Y.) with 10 μg of one of three CAT reporter plasmid DNAs, P750TRCAT, mTRE-CAT or mPEA3-CAT and 10 μg of sheared genomic DNA isolated from Cl 41 cells were then changed to medium containing 2% fetal calf serum and twenty-four to forty-two hours later, were treated with either 0.1% of DMSO, 10 ng/ml of TPA or 10 ng/ml EGF for eight hours prior to preparation of total cell extracts. CAT enzyme activity was assayed using a diffusion-based CAT assay according to the protocol provided by the manufacturers (New England Nuclear, Del.). The results are expressed as the rate of accumulation of [^14C]-acetylated product relative to solvent controls (DMSO).
# In order to determine whether TPA-induced CAT activity in JB6 P^+ cells is capable of being abolished, TPA induced CAT activity was measured in the presence of the known AP-1 inhibitors retinoic acid (RA) and fluocinolone acetonide (FA). In brief, JB6 P^+ Cl 41 cells were transfected with 10 μg of P750TRCAT and 10 μg of sheared genomic DNA from Cl 41 cells as in Example 1. […] As before, the results are expressed as the rate of accumulation of ^14C-acetylated product relative to solvent controls. […]
molecule,measurement,setting,value
B1,"c-Jun protein levels (43 kDa band, densitometric analysis)",c-Jun,no significant differences
same,increase in AP-1 dependent CAT activity in neo-only transfectants,"AP-1; N1-N3 transfectants, P750TRCAT",three to four fold increases
same,"CAT activity relative to uninduced cells, P750TRCAT reporter",AP-1; P750TRCAT-transfected JB6 P+ Cl 41 cells,about 2 fold
same,"CAT activity relative to uninduced cells, mPEA3-CAT reporter",AP-1; mPEA3-CAT-transfected JB6 P+ Cl 41 cells (PEA3 sites mutated),about 2 fold
same,"inducibility of CAT activity, mTRE-CAT reporter",AP-1; mTRE-CAT-transfected cells (AP-1 binding site mutated),loss of inducibility
